Results: US20250297004A1, “NECTIN-4 BINDING AGENTS” (INNATE PHARMA, priority 2022, published 2025)
Numbering of substitutions follows the chain as printed.

Legend:
Test in all cases: binding to HEK293T cells expressing Nectin-4 mutant
[1] = target: T1, human Nectin-4 Mutant 3 (human, UniProt Q96NY8 32-510)
T1 construct: Expressed on transfected HEK293T cells; also called A76S/Q77R/E78A/S91N
T1 chain: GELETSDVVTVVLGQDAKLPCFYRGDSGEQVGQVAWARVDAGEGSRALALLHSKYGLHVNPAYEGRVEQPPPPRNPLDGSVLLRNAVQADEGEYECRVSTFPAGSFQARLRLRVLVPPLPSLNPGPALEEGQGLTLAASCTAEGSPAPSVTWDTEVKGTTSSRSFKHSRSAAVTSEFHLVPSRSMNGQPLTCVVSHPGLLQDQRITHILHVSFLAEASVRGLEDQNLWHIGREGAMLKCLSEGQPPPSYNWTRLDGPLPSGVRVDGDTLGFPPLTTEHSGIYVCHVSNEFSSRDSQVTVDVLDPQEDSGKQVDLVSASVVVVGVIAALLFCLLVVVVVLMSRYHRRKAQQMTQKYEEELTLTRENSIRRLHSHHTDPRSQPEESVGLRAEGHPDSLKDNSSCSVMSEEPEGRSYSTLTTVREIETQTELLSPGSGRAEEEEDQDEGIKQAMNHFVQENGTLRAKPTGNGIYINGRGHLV

[2] = target: T2, human Nectin-4 Mutant 4 (human, UniProt Q96NY8 32-510)
T2 construct: Expressed on transfected HEK293T cells; also called A72P/G73N/G75S
T2 chain: T1 chain with A41P, G42N, G44S, S45A, R46Q, A47E, N60S

[3] = target: T3, human Nectin-4 Mutant 6 (human, UniProt Q96NY8 32-510)
T3 construct: Expressed on transfected HEK293T cells; also called H238A/I239T/H241Q
T3 chain: T1 chain with S45A, R46Q, A47E, N60S, H207A, I208T, H210Q

[4] = target: T4, human Nectin-4 Mutant 8 (human, UniProt Q96NY8 32-510)
T4 construct: Expressed on transfected HEK293T cells; also called T190A/T191Q/S193A
T4 chain: T1 chain with S45A, R46Q, A47E, N60S, T159A, T160Q, S162A

[5] = target: T5, human Nectin-4 Mutant 9 (human, UniProt Q96NY8 32-510)
T5 construct: Expressed on transfected HEK293T cells; also called L150S/S152A/Q234R/I236S
T5 chain: T1 chain with S45A, R46Q, A47E, N60S, L119S, S121A, Q203R, I205S

Measured: binding result

B1: chimeric parental 5E7 antibody (antibody, V domains shown)
VH: QVQLQQPGAELVKPGASVKLSCKASGYIFTSYWMHWVKQRPGQGLEWIGEIDPSDSYTNYNQKFKGKATLTLDKSSSTTYMQLSSLTSEDSAVYYCVRGYGNYGDYWGQGTTLTVSS
VL: DVVMTQAAFSNPVTLGTSASISCRSSKSLLHSNGITYLYWYLQKPGQSPQLLIYQMSNLASGVPDRFSSSGSGTDFTLRISRVEAEDVGVYYCAQNLELPWTFGGGTKLEIKR
notes: Chimeric antibody, murine variable domains with human constant regions; also called ch5E7; CHG1-M-1N4-5E7
binds: all assays above

B2: N41 (antibody, V domains shown)
VH: QVQLKQSGPGLVQPSQSLSITCTVSGFSLTNYGVHWVRQSPGKGLEWLGVIWSGGSTDYNAAFISRLSISKDTSKSQVFFKMNSLQADDTAIYYCARELIHAMDNWGQGTSVTVSS
VL: DIQMTQSPASLSVSVGETVTITCRASENIYSNLAWYQQKQGNSPQLLVFAATNLADGVPSRFSGSGSGTQYSLKINSLQSEDFGTYYCQHFWGTPTFGGGTKLEIK
binds: all assays above
